The target in one data set is T1, HuR/ELAVL1 (Homo sapiens, UniProt Q15717).
T1 construct: full-length human HuR with C-terminal Myc-His tag (rHuR), purified from HEK293T cells
Briefly: AlphaScreen ([…]) and REMSA ([…]) of rHuR-RNA complex formation. It is filed as biochemical. (In general: Bead proximity is the source of the signal in Alpha formats.)

Data set [1] concerns the target T2, rHuR (HuR-Myc-His) (Homo sapiens, UniProt Q15717 1-326). Briefly: AlphaScreen saturation binding; AlphaScreen: 25 mM HEPES pH 7.4, 100 mM NaCl, 0.1% BSA, room temperature; REMSA: 20 mM HEPES pH 7.5, 50 mM KCl, 0.5 ug BSA, 0.25% glycerol, room temperature, 6% native gel 0.5X TBE at 4 C. Particulars: protein: recombinant; tags: C-terminal c-Myc and His6; label: 5'-biotin; single strand.

Data set [2] deals with T2, rHuR (HuR-Myc-His). Briefly: AlphaScreen saturation binding; signal near background, probe 0-100 nM; AlphaScreen: 25 mM HEPES pH 7.4, 100 mM NaCl, 0.1% BSA, room temperature; REMSA: 20 mM HEPES pH 7.5, 50 mM KCl, 0.5 ug BSA, 0.25% glycerol, room temperature, 6% native gel 0.5X TBE at 4 C. The conditions noted are these: protein: recombinant; tags: C-terminal c-Myc and His6; label: 5'-biotin; single strand.

The target in data set [3] is T2, rHuR (HuR-Myc-His). Briefly: AlphaScreen saturation binding; repeat alongside Bi-COX; AlphaScreen: 25 mM HEPES pH 7.4, 100 mM NaCl, 0.1% BSA, room temperature; REMSA: 20 mM HEPES pH 7.5, 50 mM KCl, 0.5 ug BSA, 0.25% glycerol, room temperature, 6% native gel 0.5X TBE at 4 C. Particulars: protein: recombinant; tags: C-terminal c-Myc and His6; label: 5'-biotin; single strand.

In another data set the target is T3, rTTP (His-Strep-TTP) (Mus musculus, UniProt P22893 1-319).
T3 sequence: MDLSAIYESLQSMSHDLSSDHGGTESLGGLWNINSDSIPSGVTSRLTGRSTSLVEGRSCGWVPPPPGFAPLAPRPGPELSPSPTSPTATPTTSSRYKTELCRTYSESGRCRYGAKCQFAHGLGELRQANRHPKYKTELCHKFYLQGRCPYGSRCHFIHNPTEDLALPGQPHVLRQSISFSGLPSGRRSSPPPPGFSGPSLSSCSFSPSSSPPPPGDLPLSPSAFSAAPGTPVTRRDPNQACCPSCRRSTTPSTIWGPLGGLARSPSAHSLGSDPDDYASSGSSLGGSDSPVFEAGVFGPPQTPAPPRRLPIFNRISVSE
Briefly: AlphaScreen competition; rTTP displacing 1 nM rHuR from 50 nM Bi-TNF; AlphaScreen: 25 mM HEPES pH 7.4, 100 mM NaCl, 0.1% BSA, room temperature; REMSA: 20 mM HEPES pH 7.5, 50 mM KCl, 0.5 ug BSA, 0.25% glycerol, room temperature, 6% native gel 0.5X TBE at 4 C. The conditions noted are these: protein: recombinant; tags: His-Strep; label: 5'-biotin; single strand.

Data set [4] has as its target T2, rHuR (HuR-Myc-His). Briefly: AlphaScreen competition; versus 50 nM Bi-TNF, 1 nM rHuR; AlphaScreen: 25 mM HEPES pH 7.4, 100 mM NaCl, 0.1% BSA, room temperature; REMSA: 20 mM HEPES pH 7.5, 50 mM KCl, 0.5 ug BSA, 0.25% glycerol, room temperature, 6% native gel 0.5X TBE at 4 C. The conditions noted are these: protein: recombinant; tags: C-terminal c-Myc and His6; single strand.

T2 sequence (Q15717 whole entry): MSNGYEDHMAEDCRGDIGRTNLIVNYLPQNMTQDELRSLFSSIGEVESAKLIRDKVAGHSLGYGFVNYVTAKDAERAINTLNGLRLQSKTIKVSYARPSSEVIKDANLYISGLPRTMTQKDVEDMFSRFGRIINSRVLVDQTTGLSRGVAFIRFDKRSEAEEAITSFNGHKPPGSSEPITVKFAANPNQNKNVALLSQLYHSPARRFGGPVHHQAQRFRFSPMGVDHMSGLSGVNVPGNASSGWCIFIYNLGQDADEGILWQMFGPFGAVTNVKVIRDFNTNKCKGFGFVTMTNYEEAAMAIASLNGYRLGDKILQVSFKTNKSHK
T1 sequence (Q15717 2-326): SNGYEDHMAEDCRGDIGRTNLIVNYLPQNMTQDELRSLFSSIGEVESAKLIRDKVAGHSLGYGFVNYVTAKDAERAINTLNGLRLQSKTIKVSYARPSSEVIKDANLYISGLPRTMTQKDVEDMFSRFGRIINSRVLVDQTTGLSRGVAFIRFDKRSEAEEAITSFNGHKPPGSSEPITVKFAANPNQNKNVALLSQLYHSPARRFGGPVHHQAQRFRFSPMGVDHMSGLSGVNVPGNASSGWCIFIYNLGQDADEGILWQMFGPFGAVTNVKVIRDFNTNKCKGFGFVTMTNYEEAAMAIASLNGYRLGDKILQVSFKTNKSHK

In the case of `O=C1c2c(O)ccc(O)c2C(=O)c2c(NCCNCCO)ccc(NCCNCCO)c21` [compound 16, Mitoxantrone], the “AlphaScreen (25 nM) and REMSA (0.5 μM) of rHuR-RNA complex formation” value on HuR/ELAVL1 is “Mitoxantrone revealed to be a compound interfering with rHuR binding to Bi-TNF in both of our in vitro assays”.

B1: Bi-COX (ssRNA)
RNA: UAUUAAUUUAAUUAUUUAAUAAUAUUU
Broadly, the Kd is a measure of binding affinity in units of concentration. With B1, in the data set with rHuR (HuR-Myc-His) [1], the Kd was 4.58 ± 1.2 nM.

B2: Bi-TNFneg (ssRNA)
RNA: ACCACCCACCACCCACCCACCACCCA
Turning to B2, the binding result in the data set with rHuR (HuR-Myc-His) [2] is “no binding”.

B3: Bi-TNF (ssRNA)
RNA: AUUAUUUAUUAUUUAUUUAUUAUUUA
By Ki is commonly meant a measure of affinity in units of concentration, obtained from inhibition or displacement. B3: the Kd in the data set with rHuR (HuR-Myc-His) [3] stood at 2.75 nM; with rHuR (HuR-Myc-His) [1], 2.5 ± 0.6 nM. Moreover, the Ki with rTTP (His-Strep-TTP) is 0.00176 ± 0.00041 nM.

B4: U-TNF (ssRNA)
RNA: AUUAUUUAUUAUUUAUUUAUUAUUUA
For the molecule B4, in the data set with rHuR (HuR-Myc-His) [4], the inhibitory constant (Ki) came to 4.49 ± 1.1 nM.
